Consider one molecule from publication PMC8734478 (Science (New York, N.Y.), 2021).

Ends that are not written are not given here. * marks the point of attachment. Palmitoyl = CCCCCCCCCCCCCCCC(=O)*

This experiment deals with human Hedgehog acyltransferase (HHAT) (human, UniProt Q5VTY9 1-493). Description: cryo-EM structure.
Chain of human Hedgehog acyltransferase (HHAT) (Q5VTY9 whole entry): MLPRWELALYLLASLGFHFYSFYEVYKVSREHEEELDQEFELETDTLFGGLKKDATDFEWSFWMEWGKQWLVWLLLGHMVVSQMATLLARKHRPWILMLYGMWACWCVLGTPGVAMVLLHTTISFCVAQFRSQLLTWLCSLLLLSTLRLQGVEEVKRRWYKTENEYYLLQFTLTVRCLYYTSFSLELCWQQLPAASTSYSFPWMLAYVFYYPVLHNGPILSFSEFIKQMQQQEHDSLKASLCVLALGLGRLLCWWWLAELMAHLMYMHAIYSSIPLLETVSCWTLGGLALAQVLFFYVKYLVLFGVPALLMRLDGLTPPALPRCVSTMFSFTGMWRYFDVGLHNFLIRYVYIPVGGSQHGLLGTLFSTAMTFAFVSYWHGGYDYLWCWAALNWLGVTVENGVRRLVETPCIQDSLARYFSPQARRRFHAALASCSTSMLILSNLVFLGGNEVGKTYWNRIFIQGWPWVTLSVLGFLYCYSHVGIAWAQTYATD

Take Palmitoyl-CGPGRGFGKRRH (peptide, UniProt Q15465 24-35, looked up): the binding result is recorded as “binds”.
